In data set [1] the target is T1, MIWI (mouse, UniProt Q9JMB7 1-862). Nature of the data set: EMSA. On the technique in general: Mobility shift assays separate free from complexed probe on a gel.
Data set [2] has as its target T1, MIWI. Nature of the data set: EMSA. This is another data set of the same source.

Where two headings read alike, the source gives them in different places.

T1 sequence (Q9JMB7 whole entry): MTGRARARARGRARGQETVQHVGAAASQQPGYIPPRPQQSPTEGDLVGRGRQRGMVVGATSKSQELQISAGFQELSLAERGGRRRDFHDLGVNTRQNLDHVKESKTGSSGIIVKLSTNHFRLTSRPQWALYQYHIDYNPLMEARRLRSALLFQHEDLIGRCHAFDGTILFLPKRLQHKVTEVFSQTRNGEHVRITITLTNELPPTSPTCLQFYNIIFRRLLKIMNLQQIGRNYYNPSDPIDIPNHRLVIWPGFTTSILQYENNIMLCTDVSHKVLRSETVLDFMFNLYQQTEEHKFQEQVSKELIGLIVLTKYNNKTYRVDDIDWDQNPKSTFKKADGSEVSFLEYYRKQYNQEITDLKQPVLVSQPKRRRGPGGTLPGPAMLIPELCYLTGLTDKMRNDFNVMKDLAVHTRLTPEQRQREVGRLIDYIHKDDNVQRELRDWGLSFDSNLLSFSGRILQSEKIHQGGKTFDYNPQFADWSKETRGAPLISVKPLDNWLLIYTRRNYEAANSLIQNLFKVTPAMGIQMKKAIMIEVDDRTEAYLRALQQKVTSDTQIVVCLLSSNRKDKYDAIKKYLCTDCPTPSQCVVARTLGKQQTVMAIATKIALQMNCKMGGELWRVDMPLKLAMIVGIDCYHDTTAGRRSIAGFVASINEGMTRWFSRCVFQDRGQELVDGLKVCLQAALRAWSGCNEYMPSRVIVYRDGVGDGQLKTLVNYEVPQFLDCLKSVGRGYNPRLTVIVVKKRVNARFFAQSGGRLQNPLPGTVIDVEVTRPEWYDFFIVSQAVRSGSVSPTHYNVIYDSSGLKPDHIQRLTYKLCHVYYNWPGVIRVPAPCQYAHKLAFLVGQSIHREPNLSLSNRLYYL

On to CCUCAUGAAGAAGAGGAGGAGGA (ssRNA) [Ssty RNA oligonucleotide (putative piRNA)], for which the binding result in the data set with MIWI [1] was “binds”.

UGACAUGAACACAGGUGCUCAGAUAGCUUU (ssRNA) [piR1]: the binding result with MIWI [2] is reported as “binds”. Turning to CAGUUAAAGAAAUGCAUGAGAA (ssRNA) [Sly RNA oligonucleotide (putative piRNA)], the binding result with MIWI [1] was “binds”.

The values are drawn from doi:10.1101/407197.
